In PMC10514269, “W546 stacking disruption traps the human porphyrin transporter ABCB6 in an outward-facing transient state” (Communications Biology, 2023):
Residue numbers refer to the chain shown, from its start. In names and notes the source's numbering stands.

B1: core region of human ABCB6 (residues 206-842, without TMD0) (domain or fragment, UniProt Q9NP58 206-842, looked up)
chain: APGLRPQSYTLQVHEEDQDVERSQVRSAAQQSTWRDFGRKLRLLSGYLWPRGSPALQLVVLICLGLMGLERALNVLVPIFYRNIVNLLTEKAPWNSLAWTVTSYVFLKFLQGGGTGSTGFVSNLRTFLWIRVQQFTSRRVELLIFSHLHELSLRWHLGRRTGEVLRIADRGTSSVTGLLSYLVFNVIPTLADIIIGIIYFSMFFNAWFGLIVFLCMSLYLTLTIVVTEWRTKFRRAMNTQENATRARAVDSLLNFETVKYYNAESYEVERYREAIIKYQGLEWKSSASLVLLNQTQNLVIGLGLLAGSLLCAYFVTEQKLQVGDYVLFGTYIIQLYMPLNWFGTYYRMIQTNFIDMENMFDLLKEETEVKDLPGAGPLRFQKGRIEFENVHFSYADGRETLQDVSFTVMPGQTLALVGPSGAGKSTILRLLFRFYDISSGCIRIDGQDISQVTQASLRSHIGVVPQDTVLFNDTIADNIRYGRVTAGNDEVEAAAQAAGIHDAIMAFPEGYRTQVGERGLKLSGGEKQRVAIARTILKAPGIILLDEATSALDTSNERAIQASLAKVCANRTTIVVAHRLSTVVNADQILVIKDGCIVERGRHEALLSRGGVYADMWQLQQGQEETSEDTKPQTMER
notes: Homodimer in the cryo-EM maps; also called hABCB6^core; ABCB6^core; not shown: eGFP, C-terminal, cleaved; 10×His, C-terminal, cleaved
B2: hABCB6^core-W546A mutant (domain or fragment, human, UniProt Q9NP58 206-842, looked up)
chain: B1 chain with W341A
notes: Homodimer in the cryo-EM structures; Used in detergent micelles and in nanodiscs (porcine brain polar lipids, hApoA-I (Δ1-43) scaffold); source: also reconstituted into nanodiscs; not shown: eGFP, C-terminal, cleaved; 10×His, C-terminal, cleaved

Molecular target: the molecule itself
Assay: cryo-EM structure; detergent-purified protein (6 mg/mL) incubated with 100 μM CPIII, 2 mM MgCl2, 2 mM ATP and 2 mM sodium orthovanadate for 30 min at 22 °C; single-particle analysis

Protein	binding result	stoichiometry N
B1	binds	
B2		2
